Tests used:
[1] = biological target: DR5 cloned in the pVP16 vector as an activation-domain fusion (UniProt O14763); assay: cell-based or functional assay
[2] = biological target: T1, ACEA (CEA/CEACAM5 A1 domain to B3 domain, N domain deleted) (Homo sapiens, UniProt P06731 P06731:145-675); assay: SPR; Biacore 2000; GROUP I member tested not specified (SEQ 1-12); settings: tags: pET28a(+), Ni-NTA (His), E. coli BL21
Method: (§1) To measure the affinity of RNA to CEA, SPR analysis was performed with Biacore 2000 (GE healthcare) device. Various concentrations of RNAs (GROUP 1, 2, 3 and library in FIG. 2) were flowed on NCEA and ACEA to measure the binding affinity.
(§2) The above value is measured using BIAevaluation program (which is used to analyze graph obtained from BIAcore device).

[3] = biological target: T2, NCEA (CEA/CEACAM5 N domain to B3 domain) (Homo sapiens, UniProt P06731 P06731:35-675); assay: as above; settings: tags: pET28a(+), Ni-NTA (His), E. coli BL21
Method: as §1, §2

[4] = biological target: T1, ACEA (CEA/CEACAM5 A1 domain to B3 …); assay: SPR; Biacore 2000; settings: tags: pET28a(+), Ni-NTA (His), E. coli BL21
Method: (§3) To measure the affinity of RNA aptamer to CEA, SPR analysis was performed with Biacore 2000 (GE healthcare) device. Various concentrations of RNAs (Trunc. GROUP 1-1 & 1-2 and Mutant GROUP 1-1 & 1-2, Loop-only, Library) were flowed on NCEA and ACEA to measure the binding affinity, which is shown in the following TABLE 4 and FIG. 4.

[5] = biological target: T2, NCEA (CEA/CEACAM5 N domain to B3 domain); assay: SPR; Biacore 2000; settings: tags: pET28a(+), Ni-NTA (His), E. coli BL21; hairpin-loop (predicted)
Method: as §3

[6] = biological target: T2, NCEA (CEA/CEACAM5 N domain to B3 domain); assay: SPR; Biacore 2000; loop mutant, weakened or no binding per text; settings: tags: pET28a(+), Ni-NTA (His), E. coli BL21
Method: as §3

T1 sequence (P06731 145-675, stated change not applied, one chain of several): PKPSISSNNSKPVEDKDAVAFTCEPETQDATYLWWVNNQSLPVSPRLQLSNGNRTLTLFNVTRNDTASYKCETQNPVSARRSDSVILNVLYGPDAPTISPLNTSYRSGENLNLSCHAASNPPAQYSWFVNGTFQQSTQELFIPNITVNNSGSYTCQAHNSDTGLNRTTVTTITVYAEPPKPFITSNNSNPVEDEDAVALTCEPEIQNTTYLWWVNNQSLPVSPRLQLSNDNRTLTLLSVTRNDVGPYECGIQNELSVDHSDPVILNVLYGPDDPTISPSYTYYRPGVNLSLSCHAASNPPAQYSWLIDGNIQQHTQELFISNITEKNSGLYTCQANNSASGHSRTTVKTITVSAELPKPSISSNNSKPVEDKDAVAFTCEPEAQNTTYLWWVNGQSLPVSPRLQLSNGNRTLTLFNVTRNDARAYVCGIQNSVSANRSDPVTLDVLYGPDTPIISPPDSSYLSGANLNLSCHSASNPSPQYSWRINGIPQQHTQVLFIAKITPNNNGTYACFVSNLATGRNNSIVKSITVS
T2 sequence (P06731 35-675, one chain of several): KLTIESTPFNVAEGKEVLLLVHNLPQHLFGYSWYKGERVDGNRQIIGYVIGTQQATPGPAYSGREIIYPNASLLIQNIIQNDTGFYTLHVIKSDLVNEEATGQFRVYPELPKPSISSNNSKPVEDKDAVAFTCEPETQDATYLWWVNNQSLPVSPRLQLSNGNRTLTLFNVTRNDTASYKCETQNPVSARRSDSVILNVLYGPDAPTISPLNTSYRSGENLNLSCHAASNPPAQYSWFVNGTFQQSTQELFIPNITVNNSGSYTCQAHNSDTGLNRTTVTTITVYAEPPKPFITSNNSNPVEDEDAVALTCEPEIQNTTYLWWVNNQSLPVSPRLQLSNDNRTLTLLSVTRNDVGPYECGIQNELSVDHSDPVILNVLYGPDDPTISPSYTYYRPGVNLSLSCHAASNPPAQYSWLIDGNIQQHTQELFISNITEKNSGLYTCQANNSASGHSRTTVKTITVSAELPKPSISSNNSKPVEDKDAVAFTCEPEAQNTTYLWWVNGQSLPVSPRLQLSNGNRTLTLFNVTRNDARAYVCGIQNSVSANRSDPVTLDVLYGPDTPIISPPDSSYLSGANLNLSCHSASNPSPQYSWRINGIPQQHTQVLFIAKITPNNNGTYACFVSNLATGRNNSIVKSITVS

With “NCEA (protein consisting of N domain to B3 domain of CEA, CEACAM5) cloned in the pM vector as a GAL4 DNA-BD fusion (from UniProt P04386 1-147; P06731 35-676)” the SEAP activity in the medium of transfected cells (mammalian two-hybrid system) [1] was 2.5 fold.

B1: GROUP I RNA aptamer (ssRNA)
RNA: GGGAGAGCGGAAGCGUGCUGGGCUAGAAUAAUAAUAAGAAAACCAGUACUUUCGUGUCCCGGGAGGGUGCAUAACCCAGAGGUCGAUGGAUCC
modifications: 2'-F pyrimidines (C and U)
For B1, the Kd [2] was 3.22 nM and the Kd [3] was 0.313 nM.

Molecule GUGCUGGGCUAGAAUAAUAAUAAGAAAACCAGUAC (ssRNA, 2'-F pyrimidines (C and U)) [Truncated GROUP 1-2 (19-2)] has a Kd ([4]; hairpin-loop (predicted)) of 590 nM and a Kd [5] of 4 nM.

GCGGAAGCGUGCUGGGCUAGGGCGGCGGCGGGAAAACCAGUACUUUCGU (ssRNA, 2'-F pyrimidines (C and U)) [Mutant GROUP 1-1 (m19-1, mutant YJ-1)] was tested, and the Kd [6] was 1300 nM and the Kd [4] was 790 nM.

In the case of GUGCUGGGCUAGGGCGGCGGCGGGAAAACCAGUAC (ssRNA, 2'-F pyrimidines (C and U)) [Mutant GROUP 1-2 (m19-2)], the Kd [6] is reported as 420 nM and the Kd [4] is reported as 630 nM.

For GGCUAGAAUAAUAAUAAGAAAAC (ssRNA, 2'-F pyrimidines (C and U)) [Loop only], the Kd [4] was 1100 nM.

GCGGAAGCGUGCUGGGCUAGAAUAAUAAUAAGAAAACCAGUACUUUCGU (ssRNA, 2'-F pyrimidines (C and U)) [Truncated GROUP 1-1 (19-1, YJ-1)] was tested, and the Kd ([4]; hairpin-loop (predicted)) was 600 nM and the Kd [5] was 0.77 nM.

Source: patent US20140235698A1, “RNA Aptamer Specifically Binding to Carcinoembryonic Antigen and Use thereof” (POSCO, published 2014)
